Assay results as given in patent US20260184814A1, “BROADLY NE[…] INFLUENZA NEURAMINIDASE” (priority 2022, published 2026).
Several values for one entry are separate records, joined by “and”; a condition that tells them apart may be missing. Identical values can stand only once. Like-named read-outs stand apart in the source and are kept apart here.

Assays:
[1] = target: human FcγRIIIa (F158 allele) (human) (UniProt P08637); experiment: MSD
[2] = target: human FcγRIIIa (V158 allele) (human) (UniProt P08637); experiment: MSD
human FcγRIIIb (human) [3] = target: human FcγRIIIb (human) (UniProt O75015); experiment: MSD
[4] = target: human FcγRIIa (R131 allele) (human) (UniProt P12318); experiment: MSD
human C1q (human) [5] = target: human C1q (human) (UniProt P02745); experiment: MSD
[6] = target: human FcγRIIa (H131 allele) (human) (UniProt P12318); experiment: MSD
human FcRn (human) [7] = target: human FcRn (human) (UniProt P55899); experiment: MSD
human FcγRIIb (human) [8] = target: human FcγRIIb (human) (UniProt P31994); experiment: MSD
[9] = target: human FcγRIIIa (F158 allele) (human) (UniProt P08637)
[10] = target: human FcγRIIIa (V158 allele) (human) (UniProt P08637)
[11] = target: human FcγRIIa (H131 allele) (human) (UniProt P12318)
human FcγRIIb (human) [12] = target: human FcγRIIb (human) (UniProt P31994)
human C1q (human) [13] = target: human C1q (human) (UniProt P02745); experiment: MSD [cont'd]
human FcRn (human) [14] = target: human FcRn (human) (UniProt P55899); experiment: MSD [cont'd]
human FcRn (human) [15] = target: human FcRn (human) (UniProt P55899); experiment: MSD, pH 6 [cont'd]
human FcRn (human) [16] = target: human FcRn (human) (UniProt P55899); experiment: MSD electrochemiluminescence binding assay; column FcRn
[17] = target: human FcγRIIIa (F158 allele) (human) (UniProt P08637); experiment: MSD electrochemiluminescence binding assay; column IIIA_F
human FcγRIIb (human) [18] = target: human FcγRIIb (human) (UniProt P31994); experiment: MSD electrochemiluminescence binding assay; column IIB
[19] = target: human FcγRIIa (R131 allele) (human) (UniProt P12318); experiment: MSD electrochemiluminescence binding assay; column IIA_R
human FcγRIIIb (human) [20] = target: human FcγRIIIb (human) (UniProt O75015); experiment: MSD electrochemiluminescence binding assay; column IIIB
[21] = target: human FcγRIIa (H131 allele) (human) (UniProt P12318); experiment: MSD electrochemiluminescence binding assay; column IIA_H
[22] = target: human FcγRIIIa (V158 allele) (human) (UniProt P08637); experiment: MSD electrochemiluminescence binding assay; column IIIA_V
[23] = target: human FcγRIIIa (F158 allele) (human) (UniProt P08637); remark: listed apart in the source
[24] = target: human FcγRIIa (H131 allele) (human) (UniProt P12318); remark: listed apart in the source
human FcγRIIb (human) [25] = target: human FcγRIIb (human) (UniProt P31994); remark: listed apart in the source

Sequence of human C1q (human) (P02745 23-245 limits assumed, chain 1 of 3): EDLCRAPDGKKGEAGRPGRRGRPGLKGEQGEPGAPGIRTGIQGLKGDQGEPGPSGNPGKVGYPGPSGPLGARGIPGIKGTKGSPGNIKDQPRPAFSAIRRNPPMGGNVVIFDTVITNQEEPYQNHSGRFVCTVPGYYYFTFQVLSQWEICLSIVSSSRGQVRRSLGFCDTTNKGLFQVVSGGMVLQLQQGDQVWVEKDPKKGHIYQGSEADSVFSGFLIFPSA
Sequence of human C1q (human) (P02746 28-253 limits assumed, chain 2 of 3, further chain): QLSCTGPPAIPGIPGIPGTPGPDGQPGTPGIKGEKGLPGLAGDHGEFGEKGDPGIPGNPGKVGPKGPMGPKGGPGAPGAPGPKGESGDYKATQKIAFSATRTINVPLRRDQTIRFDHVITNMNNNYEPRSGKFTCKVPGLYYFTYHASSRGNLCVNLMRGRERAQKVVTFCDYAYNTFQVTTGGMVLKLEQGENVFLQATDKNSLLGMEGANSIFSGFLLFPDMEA
Sequence of human C1q (human) (P02747 29-245 limits assumed, chain 3 of 3, further chain): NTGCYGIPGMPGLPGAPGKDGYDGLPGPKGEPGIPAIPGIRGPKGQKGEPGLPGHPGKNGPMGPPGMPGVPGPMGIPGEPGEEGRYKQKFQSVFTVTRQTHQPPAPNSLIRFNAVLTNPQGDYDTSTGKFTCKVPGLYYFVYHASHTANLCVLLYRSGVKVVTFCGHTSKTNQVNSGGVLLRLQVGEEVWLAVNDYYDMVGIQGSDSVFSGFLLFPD
Sequence of human FcγRIIIa (F158 allele) (human) (P08637 17-208 limits assumed): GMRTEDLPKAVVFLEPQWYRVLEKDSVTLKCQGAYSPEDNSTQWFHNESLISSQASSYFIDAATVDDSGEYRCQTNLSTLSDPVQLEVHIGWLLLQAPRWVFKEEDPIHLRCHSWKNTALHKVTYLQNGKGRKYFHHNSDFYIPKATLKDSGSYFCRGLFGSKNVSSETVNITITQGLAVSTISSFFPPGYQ
Sequence of human FcγRIIa (H131 allele) (human) (P12318 34-218 limits assumed): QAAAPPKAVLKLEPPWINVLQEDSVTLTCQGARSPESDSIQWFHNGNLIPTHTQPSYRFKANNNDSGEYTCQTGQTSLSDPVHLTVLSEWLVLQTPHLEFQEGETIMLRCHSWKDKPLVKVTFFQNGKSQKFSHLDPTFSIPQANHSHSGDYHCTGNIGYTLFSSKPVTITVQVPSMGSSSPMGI
Sequence of human FcγRIIa (R131 allele) (human) (P12318 34-218 H167R limits assumed): as the sequence (P12318 34-218 limits assumed) above, with H134R counted along it
Sequence of human FcRn (human) (P55899 24-297 limits assumed, chain 1 of 2): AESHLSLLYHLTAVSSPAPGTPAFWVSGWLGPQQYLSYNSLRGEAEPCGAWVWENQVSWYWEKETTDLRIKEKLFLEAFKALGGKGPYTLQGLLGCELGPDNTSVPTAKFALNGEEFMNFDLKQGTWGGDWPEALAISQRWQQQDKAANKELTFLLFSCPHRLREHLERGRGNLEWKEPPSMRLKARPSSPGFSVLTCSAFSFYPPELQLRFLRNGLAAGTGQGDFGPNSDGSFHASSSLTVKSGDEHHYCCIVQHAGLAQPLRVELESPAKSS
Sequence of human FcRn (human) (chain, as listed by the source limits assumed, chain 2 of 2): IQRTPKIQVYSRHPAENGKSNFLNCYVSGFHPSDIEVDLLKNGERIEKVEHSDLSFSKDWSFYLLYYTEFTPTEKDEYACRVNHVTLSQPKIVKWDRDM
Sequence of human FcγRIIIa (V158 allele) (human) (P08637 17-208 F176V limits assumed): as the sequence (P08637 17-208 limits assumed) above, with F160V counted along it
Sequence of human FcγRIIIb (human) (O75015 17-200 limits assumed): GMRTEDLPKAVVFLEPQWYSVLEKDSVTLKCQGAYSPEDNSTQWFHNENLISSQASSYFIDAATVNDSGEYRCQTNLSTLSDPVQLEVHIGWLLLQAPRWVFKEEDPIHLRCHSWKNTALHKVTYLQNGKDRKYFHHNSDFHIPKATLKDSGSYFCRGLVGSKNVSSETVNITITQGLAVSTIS
Sequence of human FcγRIIb (human) (P31994 43-217 limits assumed): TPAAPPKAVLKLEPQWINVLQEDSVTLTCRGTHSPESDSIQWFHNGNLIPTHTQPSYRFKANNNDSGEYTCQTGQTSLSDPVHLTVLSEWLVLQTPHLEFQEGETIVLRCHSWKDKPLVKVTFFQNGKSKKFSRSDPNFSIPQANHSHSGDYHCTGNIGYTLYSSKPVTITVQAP

Substance GA (Fc-LS) (antibody) has a fold-change vs FY1 rIgG1m3-MLNS [1] of 0.93 fold, a fold-change vs FY1 rIgG1m3-MLNS [2] of 0.52 fold and a fold-change vs FY1 rIgG1m3-MLNS (human FcγRIIIb (human) [3]) of 0.84 fold. The fold-change vs FY1 rIgG1m3-MLNS [4] was 6.9 fold, the fold-change vs FY1 rIgG1m3-MLNS (human C1q (human) [5]) was 0.35 fold and the fold-change vs FY1 rIgG1m3-MLNS [6] was 10 fold. The fold-change vs FY1 rIgG1m3-MLNS (human FcRn (human) [7]) was 0.95 fold and the fold-change vs FY1 rIgG1m3-MLNS (human FcγRIIb (human) [8]) was 1.1 fold.

For “IgG1 antibody with Fc variant G236A (afucosylated)”, the fold-change (reference not given) [1] was 17.2 fold and 35.6 fold, the fold-change (reference not given) [2] was 6.7 fold and the fold-change (reference not given) (human FcγRIIIb (human) [3]) was 2.1 fold and 1.8 fold. The fold-change (reference not given) [4] was 6.1 fold and 9.9 fold, the fold-change (reference not given) (human C1q (human) [5]) was 0.16 fold and the fold-change (reference not given) [6] was 5.4 fold and 9.5 fold. For the same substance, the fold-change (reference not given) (human FcγRIIb (human) [8]) was 0.6 fold and 1.1 fold.

Substance “G236A_A330L_I332E_M428L_N434S (antibody)” has a FcγR reporter signaling, fold-change vs wt [cont'd] [9] of 13.5 fold, a FcγR reporter signaling, fold-change vs wt [cont'd] [10] of 3.92 fold and a FcγR reporter signaling, fold-change vs wt [cont'd] [11] of 2.32 fold. It also gave a FcγR reporter signaling, fold-change vs wt [cont'd] (human FcγRIIb (human) [12]) of 0.35 fold, a fold-change vs wt (human C1q (human) [13]) of 0 fold and a fold-change vs wt (human FcRn (human) [14]) of 12.3 fold. It also gave a fold-change vs FY1 rIgG1m3 [1] of 9.4 fold, a fold-change vs FY1 rIgG1m3-MLNS [1] of 14.4 fold and a fold-change vs wt [1] of 9.41 fold. It also gave a fold-change to WT Fc [2] of 1.56 fold, a fold-change vs FY1 rIgG1m3 [2] of 1.6 fold and a fold-change vs FY1 rIgG1m3-MLNS [2] of 2.1 fold. For the same substance, the fold-change vs wt [2] was 1.56 fold, the fold-change vs FY1 rIgG1m3 (human FcγRIIIb (human) [3]) was 1.4 fold and the fold-change vs FY1 rIgG1m3-MLNS (human FcγRIIIb (human) [3]) was 1.9 fold. It also gave a fold-change vs wt (human FcγRIIIb (human) [3]) of 1.4 fold, a fold-change vs FY1 rIgG1m3 [4] of 1.3 fold and a fold-change vs FY1 rIgG1m3-MLNS [4] of 2.5 fold. The fold-change vs wt [4] was 1.27 fold, the fold-change to WT Fc [6] was 2.89 fold and the fold-change vs FY1 rIgG1m3 [6] was 2.9 fold. For the same substance, the fold-change vs FY1 rIgG1m3-MLNS [6] was 3.8 fold, the fold-change vs wt [6] was 2.89 fold and the fold-change vs FY1 rIgG1m3 (human FcRn (human) [7]) was 12.3 fold. It also gave a fold-change vs FY1 rIgG1m3-MLNS (human FcRn (human) [7]) of 0.68 fold, a fold-change to WT Fc (human FcγRIIb (human) [8]) of 0.422 fold and a fold-change vs FY1 rIgG1m3 (human FcγRIIb (human) [8]) of 0.4 fold. For the same substance, the fold-change vs FY1 rIgG1m3-MLNS (human FcγRIIb (human) [8]) was 0.8 fold, the fold-change vs wt (human FcγRIIb (human) [8]) was 0.42 fold and the fold-change to WT Fc (human FcRn (human) [15]) was 12.3 fold.

“IgG1 antibody with Fc variant G236A_K334A_Q295E” showed a FcγR reporter signaling, fold-change vs wt [cont'd] [9] of 0.23 fold, a FcγR reporter signaling, fold-change vs wt [cont'd] [10] of 0.36 fold and a FcγR reporter signaling, fold-change vs wt [cont'd] [11] of 2.13 fold. For the same substance, the FcγR reporter signaling, fold-change vs wt [cont'd] (human FcγRIIb (human) [12]) was 0.8 fold, the fold-change in binding vs wild-type IgG1 (human FcRn (human) [16]) was 1.02 and the fold-change in binding vs wild-type IgG1 [17] was 0.74. For the same substance, the fold-change vs wt (human C1q (human) [13]) was 0.9 fold, the fold-change vs wt (human FcRn (human) [14]) was 1.02 fold and the fold-change in binding vs wild-type IgG1 (human FcγRIIb (human) [18]) was 0.4. It also gave a fold-change vs wt [1] of 0.74 fold, a fold-change vs wt [2] of 0.27 fold and a fold-change vs wt (human FcγRIIIb (human) [3]) of 0.72 fold. It also gave a fold-change vs wt [4] of 2.92 fold, a fold-change vs wt [6] of 4.96 fold and a fold-change vs wt (human FcγRIIb (human) [8]) of 0.67 fold. It also gave a fold-change in binding vs wild-type IgG1 [19] of 2.88, a fold-change in binding vs wild-type IgG1 (human FcγRIIIb (human) [20]) of 0.72 and a fold-change in binding vs wild-type IgG1 [21] of 5.01. The fold-change in binding vs wild-type IgG1 [22] was 0.27.

Substance “IgG1 antibody with Fc variant G236A_Y300L” has a fold-change vs FY1 rIgG1m3 [1] of 1 fold, a fold-change vs FY1 rIgG1m3 [2] of 0.9 fold and a fold-change vs FY1 rIgG1m3 (human FcγRIIIb (human) [3]) of 0.97 fold. It also gave a fold-change vs FY1 rIgG1m3 [4] of 4.6 fold, a fold-change vs FY1 rIgG1m3 (human C1q (human) [5]) of 0.98 fold and a fold-change vs FY1 rIgG1m3 [6] of 18.2 fold. For the same substance, the fold-change vs FY1 rIgG1m3 (human FcγRIIb (human) [8]) was 1.1 fold.

Work on L309T_P238D_P396L_T366A (antibody) yielded a FcγR reporter signaling, fold-change vs wt [cont'd] [23] of 0.05 fold, a FcγR reporter signaling, fold-change vs wt [cont'd] [24] of 0.04 fold and a FcγR reporter signaling, fold-change vs wt [cont'd] (human FcγRIIb (human) [25]) of 0.91 fold.

In the case of “IgG1 antibody with Fc variant G236A_P230A_Q295E”, the FcγR reporter signaling, fold-change vs wt [cont'd] [9] is reported as 0.02 fold, the FcγR reporter signaling, fold-change vs wt [cont'd] [10] is reported as 0.06 fold and the FcγR reporter signaling, fold-change vs wt [cont'd] [11] is reported as 2.29 fold. For the same substance, the FcγR reporter signaling, fold-change vs wt [cont'd] (human FcγRIIb (human) [12]) was 0.56 fold, the fold-change in binding vs wild-type IgG1 (human FcRn (human) [16]) was 0.93 and the fold-change in binding vs wild-type IgG1 [17] was 0.48. It also gave a fold-change vs wt (human C1q (human) [13]) of 0.3 fold, a fold-change vs wt (human FcRn (human) [14]) of 0.93 fold and a fold-change in binding vs wild-type IgG1 (human FcγRIIb (human) [18]) of 0.48. For the same substance, the fold-change vs wt [1] was 0.48 fold, the fold-change vs wt [2] was 0.31 fold and the fold-change vs wt (human FcγRIIIb (human) [3]) was 0.72 fold. The fold-change vs wt [4] was 4.57 fold, the fold-change vs wt [6] was 7.67 fold and the fold-change vs wt (human FcγRIIb (human) [8]) was 0.54 fold. It also gave a fold-change in binding vs wild-type IgG1 [19] of 4.57, a fold-change in binding vs wild-type IgG1 (human FcγRIIIb (human) [20]) of 0.72 and a fold-change in binding vs wild-type IgG1 [21] of 7.59. It also gave a fold-change in binding vs wild-type IgG1 [22] of 0.31.
